Measured values taken from US20210130491A1 (ONCOTAG DIAGNOSTICS, published 2021).

T1: His-WRS (UniProt P23381 1-471, limits assumed)
T1 construct: not shown: His tag
T1 sequence (looked up): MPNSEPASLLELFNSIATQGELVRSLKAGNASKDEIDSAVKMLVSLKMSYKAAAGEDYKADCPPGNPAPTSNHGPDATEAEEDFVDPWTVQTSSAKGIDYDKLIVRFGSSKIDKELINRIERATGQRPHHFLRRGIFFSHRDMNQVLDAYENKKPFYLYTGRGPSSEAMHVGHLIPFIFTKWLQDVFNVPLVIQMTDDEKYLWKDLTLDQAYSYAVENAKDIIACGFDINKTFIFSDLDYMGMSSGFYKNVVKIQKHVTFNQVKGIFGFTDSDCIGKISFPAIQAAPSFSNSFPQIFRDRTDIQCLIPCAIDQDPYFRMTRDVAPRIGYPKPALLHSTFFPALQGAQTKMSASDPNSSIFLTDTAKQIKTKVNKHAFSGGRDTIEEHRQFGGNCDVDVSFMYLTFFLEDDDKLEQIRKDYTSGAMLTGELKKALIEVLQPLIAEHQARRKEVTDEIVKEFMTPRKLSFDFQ

T2: MRS fragment 4 (1~597 aa)
T2 construct: Expressed in H460 cells from pcDNA3; also called lane 4
T2 single chain: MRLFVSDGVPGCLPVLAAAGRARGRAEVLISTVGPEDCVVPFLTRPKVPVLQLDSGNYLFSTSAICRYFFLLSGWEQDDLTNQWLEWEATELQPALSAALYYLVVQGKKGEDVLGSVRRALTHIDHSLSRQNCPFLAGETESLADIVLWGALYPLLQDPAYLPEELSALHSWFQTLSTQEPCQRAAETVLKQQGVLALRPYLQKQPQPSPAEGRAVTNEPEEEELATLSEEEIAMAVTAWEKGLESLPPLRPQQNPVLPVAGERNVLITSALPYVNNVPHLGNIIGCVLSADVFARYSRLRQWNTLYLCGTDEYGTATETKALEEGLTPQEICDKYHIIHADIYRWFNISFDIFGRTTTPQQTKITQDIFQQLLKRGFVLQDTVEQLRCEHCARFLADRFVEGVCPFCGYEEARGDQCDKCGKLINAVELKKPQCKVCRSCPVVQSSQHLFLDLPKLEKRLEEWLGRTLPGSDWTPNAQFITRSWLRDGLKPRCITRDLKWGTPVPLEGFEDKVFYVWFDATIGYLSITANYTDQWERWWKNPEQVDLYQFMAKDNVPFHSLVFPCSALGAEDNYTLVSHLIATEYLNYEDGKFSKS

T3: MRS fragment 2 (267~417 aa)
T3 construct: Expressed in H460 cells from pcDNA3; also called lane 2
T3 single chain: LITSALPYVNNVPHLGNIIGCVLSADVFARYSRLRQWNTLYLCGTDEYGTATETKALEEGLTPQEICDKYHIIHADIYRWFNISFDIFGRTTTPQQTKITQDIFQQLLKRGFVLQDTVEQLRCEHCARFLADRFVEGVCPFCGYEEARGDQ

T4: MRS fragment 3 (267~597 aa)
T4 construct: Expressed in H460 cells from pcDNA3; also called lane 3
T4 single chain: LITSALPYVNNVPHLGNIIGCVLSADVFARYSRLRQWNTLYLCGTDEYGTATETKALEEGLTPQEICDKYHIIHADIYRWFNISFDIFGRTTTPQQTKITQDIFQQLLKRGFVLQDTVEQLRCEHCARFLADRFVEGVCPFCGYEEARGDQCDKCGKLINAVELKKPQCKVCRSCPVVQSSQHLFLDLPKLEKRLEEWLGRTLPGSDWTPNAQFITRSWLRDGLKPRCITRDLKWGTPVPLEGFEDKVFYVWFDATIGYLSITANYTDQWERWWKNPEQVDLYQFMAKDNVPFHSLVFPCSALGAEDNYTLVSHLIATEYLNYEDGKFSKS

T5: MRS fragment 1 (1~266 aa)
T5 construct: Expressed in H460 cells from pcDNA3; also called lane 1
T5 single chain: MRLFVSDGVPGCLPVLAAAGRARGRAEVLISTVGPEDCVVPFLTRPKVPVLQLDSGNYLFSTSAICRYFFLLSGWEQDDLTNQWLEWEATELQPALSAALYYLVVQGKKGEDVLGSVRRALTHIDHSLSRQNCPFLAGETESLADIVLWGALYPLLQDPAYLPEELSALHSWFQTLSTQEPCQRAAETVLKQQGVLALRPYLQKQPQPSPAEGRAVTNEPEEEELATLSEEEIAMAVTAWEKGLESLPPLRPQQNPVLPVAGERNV

T6: MRS fragment 7 (660~860 aa) (human, UniProt P56192 660-860)
T6 construct: not shown: Myc linked to the N-terminus
T6 sequence: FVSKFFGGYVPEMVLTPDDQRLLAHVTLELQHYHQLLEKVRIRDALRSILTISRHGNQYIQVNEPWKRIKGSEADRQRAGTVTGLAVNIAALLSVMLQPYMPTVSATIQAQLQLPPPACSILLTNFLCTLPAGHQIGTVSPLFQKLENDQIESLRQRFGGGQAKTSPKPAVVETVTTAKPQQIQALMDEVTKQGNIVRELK


Tests used:
[1] = target: T1, His-WRS; assay: ELISA, protein coated at 1 ug/ml
Experimental: Each well of 96 well plates (Corning 3690 flat bottom, 96-well half-area plates) was coated with different kinds of ARS proteins (His-MRS, MRS full, DX2 tag free, 34S-DX2, 34S-AIMP2, His-CRS, His-AIMP1, His-GRS, His-WRS, His-KRS) at the concentration of 1 μg/ml. 1E8 and 8A12 antibodies at a concentration of 500 ng/ml were added onto the 96 well plates coated with ARS proteins and allowed to react for 1 hour. Thereafter, HRP-conjugated anti-mouse IgG secondary antibody was added and reacted for 1 hour. ELISA was performed and absorbance was measured at 450 nm. TMB (3,3′,5,5′-tetramethylbenzidine) was used as substrate.

[2] = target: T2, MRS fragment 4 (1~597 aa); assay: western blot of lysates of H460 cells transfected with Myc-tagged MRS fragments
Experimental: (§1) Six fragments of different lengths and positions were prepared based on the GST, catalytic domain, and tRNA binging domains of the MRS protein, and MRS protein and each of the MRS fragments were cloned into pcDNA3 vector (EV). At this time, since Myc protein is linked to the N-terminus of MRS protein, Myc protein was used as a control.
(§2) Then, 2 μg of the cloned vector DNA were transfected into H460 cells using Turbofect (Thermo) according to the manufacturer's instructions. After 24 hours, cells were harvested and subjected to western blot. 1E8 antibody and 8A12 antibody were diluted 1:5000 (0.2 μg/mL) as the primary antibody.

[3] = target: T3, MRS fragment 2 (267~417 aa); assay: as above
Experimental: as §1, §2

[4] = target: T4, MRS fragment 3 (267~597 aa); assay: as above
Experimental: as §1, §2

[5] = target: T5, MRS fragment 1 (1~266 aa); assay: as above
Experimental: as §1, §2

[6] = target: T6, MRS fragment 7 (660~860 aa); assay: western blot of lysate of transfected H460 cells
Experimental: as §2
Then, western blot was performed in the same manner as described above.

Row | binding result [1] | binding result [6] | Binder | binding result [2] | binding result [3] | binding result [4] | binding result [5]
1 | no binding (tested: 500 ng/ml) | no binding (tested: 1:5000 (0.2 ug/mL)) | 1E8 antibody (1E8 IgG) (antibody, V domains shown, Mouse monoclonal from hybridoma clone 1E8; also called IE8; anti-MRS antibody (1E8)) VH: DVKLQESGPGLVNPSQSLSLTCTVTGYSITSDYAWNWIRQFPGNKLEWMGYISYSGRTSYKSSLKSRISITRDTSKNQFFLELNSVTTEDTATYYCARDYGNFVGYFDVWGAGTTVTVSS VL: DIVMTQSPSSLAVSVGEKVTMSCKSSQSLLYSSNQKNYLAWYQQKPGQSPKLLIYWASTRESGVPDRFTGSGSGTEFTLTISSVKAEDLAVYYCQQYYSYPTFGGGTKLEIKA | no binding (tested: 0.2 µg/mL (1:5000, from paragraph 148)) | no binding (tested: 0.2 µg/mL (1:5000, from paragraph 148)) | no binding (tested: 0.2 µg/mL (1:5000, from paragraph 148)) | no binding (tested: 0.2 µg/mL (1:5000, from paragraph 148))
2 | no binding (tested: 500 ng/ml) | no binding (tested: 1:5000 (0.2 ug/mL)) | 8A12 antibody (8A12 IgG) (antibody, V domains shown, Mouse monoclonal from hybridoma clone 8A12; also called 8Al2; anti-MRS antibody (8A12)) VH: DVKLQESGPGLVKPSQSLSLTCTVTGYSITSEYAWTWIRQFPGNKLEWMGYINYNGNTNLNPSLKSRISIIRDTSKNQFFLQLNSVTTEDTATYYCARSLWPRGWFAYWGQGTLVTVSA VL: DIQMTQSPSSMYASLGERVTITCKASQDINSYLSWFQQKPGKSPKTLMYRANRLVDGVPSRFSGSGSGQDYSLTISSLEYEDMGIYYCLQYDEFPRTFGGGTKLEIKA | no binding (tested: 0.2 µg/mL (1:5000, from paragraph 148)) | no binding (tested: 0.2 µg/mL (1:5000, from paragraph 148)) | no binding (tested: 0.2 µg/mL (1:5000, from paragraph 148)) | no binding (tested: 0.2 µg/mL (1:5000, from paragraph 148))
